Measured values: the Human Domainome abundance scans (Beltran et al. 2025)
± gives the uncertainty stated by the source.

B1: Intersectin-1, residues 1156 to 1213; numbered along this chain, Q15811 (parent)
chain: AVCQVIGMYDYTAQNDDELAFNKGQIINVLNKEDPDWWKGEVNGQVGLFPSNYVKLTT

Variants of: B1
Assay: abundance fitness (aPCA) (normalised: wild type 0, dead -1); higher = more abundant; growth selection in yeast, the domain comes from the species named
Details: Homo sapiens

In order of rising abundance fitness:
1. AVCQVIGMYDYTAQNDDELAQNKGQIINVLNKEDPDWWKGEVNGQVGLFPSNYVKLTT [F21Q]  -1.13 ± 0.37
2. AVCQVIGMYDYTAQNDDELAYNKGQIINVLNKEDPDWWKGEVNGQVGLFPSNYVKLTT [F21Y]  -1.06 ± 0.28
3. AVCQVIGMYDYTAQNDDELAPNKGQIINVLNKEDPDWWKGEVNGQVGLFPSNYVKLTT [F21P]  -1.06 ± 0.26
4. AVCQVIGMYDYTAQNDDELACNKGQIINVLNKEDPDWWKGEVNGQVGLFPSNYVKLTT [F21C]  -1.01 ± 0.2
5. AVCQVIGMYDYTAQNDDELATNKGQIINVLNKEDPDWWKGEVNGQVGLFPSNYVKLTT [F21T]  -0.985 ± 0.2
6. AVCQVIGMYDYTAQNDDNLAFNKGQIINVLNKEDPDWWKGEVNGQVGLFPSNYVKLTT [E18N]  -0.954 ± 0.37
7. AVCQVIGMYDYTAQNDDELASNKGQIINVLNKEDPDWWKGEVNGQVGLFPSNYVKLTT [F21S]  -0.927 ± 0.15
8. AVCQVIGMYDYTAQNDDPLAFNKGQIINVLNKEDPDWWKGEVNGQVGLFPSNYVKLTT [E18P]  -0.919 ± 0.23
9. AVCQVIGMYDYTAQNDDELAANKGQIINVLNKEDPDWWKGEVNGQVGLFPSNYVKLTT [F21A]  -0.913 ± 0.17
10. AVCQVIGMYDYTAQNDDTLAFNKGQIINVLNKEDPDWWKGEVNGQVGLFPSNYVKLTT [E18T]  -0.908 ± 0.25
11. AVCQVIGMYDYTAQNDDWLAFNKGQIINVLNKEDPDWWKGEVNGQVGLFPSNYVKLTT [E18W]  -0.905 ± 0.16
12. AVCQVIGMYDYTAQNDDILAFNKGQIINVLNKEDPDWWKGEVNGQVGLFPSNYVKLTT [E18I]  -0.853 ± 0.27
13. AVCQVIGMYDYTAQNDDRLAFNKGQIINVLNKEDPDWWKGEVNGQVGLFPSNYVKLTT [E18R]  -0.819 ± 0.12
14. AVCQVIGMYDYTAQNDDELLFNKGQIINVLNKEDPDWWKGEVNGQVGLFPSNYVKLTT [A20L]  -0.796 ± 0.13
15. AVCQVIGMYDYTAQNDDELIFNKGQIINVLNKEDPDWWKGEVNGQVGLFPSNYVKLTT [A20I]  -0.793 ± 0.26
16. AVCQVIGMYDYTAQNDDELAGNKGQIINVLNKEDPDWWKGEVNGQVGLFPSNYVKLTT [F21G]  -0.772 ± 0.097
17. AVCQVIGMYDYTAQNDDLLAFNKGQIINVLNKEDPDWWKGEVNGQVGLFPSNYVKLTT [E18L]  -0.745 ± 0.14
18. AVCQVIGMYDYTAQNDDELAENKGQIINVLNKEDPDWWKGEVNGQVGLFPSNYVKLTT [F21E]  -0.745 ± 0.18
19. AVCQVIGMYDYTAQNDDELAHNKGQIINVLNKEDPDWWKGEVNGQVGLFPSNYVKLTT [F21H]  -0.724 ± 0.2
20. AVCQVIGMYDYTAQNDDVLAFNKGQIINVLNKEDPDWWKGEVNGQVGLFPSNYVKLTT [E18V]  -0.722 ± 0.12
21. AVCQVIGMYDYTAQNDDELAWNKGQIINVLNKEDPDWWKGEVNGQVGLFPSNYVKLTT [F21W]  -0.718 ± 0.12
22. AVCQVIGMYDYTAQNDDMLAFNKGQIINVLNKEDPDWWKGEVNGQVGLFPSNYVKLTT [E18M]  -0.696 ± 0.21
23. AVCQVIGMYDYTAQNDDELALNKGQIINVLNKEDPDWWKGEVNGQVGLFPSNYVKLTT [F21L]  -0.687 ± 0.11
24. AVCQVIGMYDYTAQNDDELARNKGQIINVLNKEDPDWWKGEVNGQVGLFPSNYVKLTT [F21R]  -0.686 ± 0.1
25. AVCQVIGMYDYTAQNDDELYFNKGQIINVLNKEDPDWWKGEVNGQVGLFPSNYVKLTT [A20Y]  -0.662 ± 0.28
26. AVCQVIGMYDYTAQNDDELADNKGQIINVLNKEDPDWWKGEVNGQVGLFPSNYVKLTT [F21D]  -0.656 ± 0.48
27. AVCQVIGMYDYTAQNDDALAFNKGQIINVLNKEDPDWWKGEVNGQVGLFPSNYVKLTT [E18A]  -0.646 ± 0.14
28. AVCQVIGMYDYTAQNDDELAMNKGQIINVLNKEDPDWWKGEVNGQVGLFPSNYVKLTT [F21M]  -0.643 ± 0.18
29. AVCQVIGMYDYTAQNDDELMFNKGQIINVLNKEDPDWWKGEVNGQVGLFPSNYVKLTT [A20M]  -0.545 ± 0.15
30. AVCQVIGMYDYTAQNDDELAKNKGQIINVLNKEDPDWWKGEVNGQVGLFPSNYVKLTT [F21K]  -0.527 ± 0.17
31. AVCQVIGMYDYTAQNDDFLAFNKGQIINVLNKEDPDWWKGEVNGQVGLFPSNYVKLTT [E18F]  -0.466 ± 0.17
32. AVCQVIGMYDYTAQNDDKLAFNKGQIINVLNKEDPDWWKGEVNGQVGLFPSNYVKLTT [E18K]  -0.439 ± 0.18
33. AVCQVIGMYDYTAQNDDSLAFNKGQIINVLNKEDPDWWKGEVNGQVGLFPSNYVKLTT [E18S]  -0.397 ± 0.11
34. AVCQVIGMYDYTAQNDDGLAFNKGQIINVLNKEDPDWWKGEVNGQVGLFPSNYVKLTT [E18G]  -0.317 ± 0.091
35. AVCQVIGMYDYTAQNDDCLAFNKGQIINVLNKEDPDWWKGEVNGQVGLFPSNYVKLTT [E18C]  -0.309 ± 0.14
36. AVCQVIGMYDYTAQNDDELHFNKGQIINVLNKEDPDWWKGEVNGQVGLFPSNYVKLTT [A20H]  -0.268 ± 0.2
37. AVCQVIGMYDYTAQNDDELAINKGQIINVLNKEDPDWWKGEVNGQVGLFPSNYVKLTT [F21I]  -0.266 ± 0.17
38. AVCQVIGMYDYTAQNDDDLAFNKGQIINVLNKEDPDWWKGEVNGQVGLFPSNYVKLTT [E18D]  -0.263 ± 0.15
39. AVCQVIGMYDYTAQNDDYLAFNKGQIINVLNKEDPDWWKGEVNGQVGLFPSNYVKLTT [E18Y]  -0.254 ± 0.16
40. AVCQVIGMYDYTAQNDDHLAFNKGQIINVLNKEDPDWWKGEVNGQVGLFPSNYVKLTT [E18H]  -0.208 ± 0.18
41. AVCQVIGMYDYTAQNDDELCFNKGQIINVLNKEDPDWWKGEVNGQVGLFPSNYVKLTT [A20C]  -0.152 ± 0.11
42. AVCQVIGMYDYTAQNDDELAVNKGQIINVLNKEDPDWWKGEVNGQVGLFPSNYVKLTT [F21V]  0.013 ± 0.089
43. AVCQVIGMYDYTAQNDDQLAFNKGQIINVLNKEDPDWWKGEVNGQVGLFPSNYVKLTT [E18Q]  0.036 ± 0.14
44. AVCQVIGMYDYTAQNDDELQFNKGQIINVLNKEDPDWWKGEVNGQVGLFPSNYVKLTT [A20Q]  0.092 ± 0.12
45. AVCQVIGMYDYTAQNDDELGFNKGQIINVLNKEDPDWWKGEVNGQVGLFPSNYVKLTT [A20G]  0.1 ± 0.078
46. AVCQVIGMYDYTAQNDDELTFNKGQIINVLNKEDPDWWKGEVNGQVGLFPSNYVKLTT [A20T]  0.127 ± 0.12
